Test results published in paper PMC5581740.

Test system: Cc1cn([C@H]2C[C@H](O)[C@@H](COP(=O)(O)OP(=O)(O)O[C@H]3O[C@H](C)[C@H](O)[C@H](N)[C@H]3O)O2)c(=O)[nH]c1=O
Assay: purified protein
Conditions: 5 mM N10-formyl-THF, 50 mM HEPPS pH 8.0, 0.20 uM enzyme

In the case of FdtF (Salmonella enterica), the Km is reported as 100 ± 10 µM, the kcat is reported as 15.5 ± 0.8 s⁻¹ and the kcat/Km is reported as 160000 ± 18000 M⁻¹ s⁻¹.
